Assay results taken from the supplement of paper PMC5998384.

Key:
HeLa Kyoto [1] = assay: solubility change mitosis vs G1/S (difference of NP-40 vs SDS log2 ratios) (log2 ratio difference); higher = more soluble in mitosis
HeLa Kyoto [2] = assay: thermal stability score vs G1/S (z-score of summed log2 fold changes over temperatures); higher = more thermally stable than in G1/S
HeLa Kyoto [3] = assay: solubility in G1/S (NP-40 vs SDS abundance) (log2 ratio); higher = more soluble; conditions: cell cycle stage: G1/S
HeLa Kyoto [4] = assay: melting temperature (median over replicates), in situ; higher = more thermally stable
[5] = cell cycle stage: early G1 (4.5 h after nocodazole release)
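Throughout, for melting temperature (median over replicates), in situ: HeLa Kyoto cells synchronized by double thymidine or nocodazole block, proteins quantified by TMT10plex mass spectrometry, three independent biological replicates.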
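Throughout, for solubility change mitosis vs G1/S (difference of NP-40 vs SDS log2 ratios): synchronized HeLa Kyoto cells (double thymidine block for G1/S, nocodazole release for mitosis), protein amounts in NP-40 versus SDS lysates quantified by mass spectrometry, three biological replicates.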
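Throughout, for solubility in G1/S (NP-40 vs SDS abundance): HeLa Kyoto cells arrested at G1/S by double thymidine block, proteins quantified by TMT10plex mass spectrometry in mild NP-40 versus SDS extracts, three biological replicates.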
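Throughout, for thermal stability score vs G1/S (z-score of summed log2 fold changes over temperatures): synchronized HeLa Kyoto cells, proteins quantified by TMT10plex mass spectrometry, three biological replicates, mitosis taken 0.5 h after nocodazole release, G1/S directly after double thymidine block.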

Chain of PTBP1 (chain, as listed by the source): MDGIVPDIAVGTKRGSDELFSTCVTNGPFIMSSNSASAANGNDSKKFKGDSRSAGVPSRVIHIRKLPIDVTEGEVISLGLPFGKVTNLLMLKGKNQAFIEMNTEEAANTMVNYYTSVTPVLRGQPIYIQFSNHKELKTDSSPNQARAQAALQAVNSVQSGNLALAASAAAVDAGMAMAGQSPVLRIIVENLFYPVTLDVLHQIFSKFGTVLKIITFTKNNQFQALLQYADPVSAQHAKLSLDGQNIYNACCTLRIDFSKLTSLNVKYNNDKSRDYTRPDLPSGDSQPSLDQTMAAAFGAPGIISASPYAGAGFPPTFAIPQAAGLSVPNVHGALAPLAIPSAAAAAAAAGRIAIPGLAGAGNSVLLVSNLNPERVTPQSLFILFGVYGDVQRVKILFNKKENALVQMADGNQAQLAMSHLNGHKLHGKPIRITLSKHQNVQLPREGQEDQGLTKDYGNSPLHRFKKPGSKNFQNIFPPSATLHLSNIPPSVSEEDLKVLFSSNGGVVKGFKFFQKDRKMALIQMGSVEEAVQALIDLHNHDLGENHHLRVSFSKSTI

Row | Substance | solubility change mitosis (log2) (HeLa Kyoto [1]) | thermal stability score (HeLa Kyoto [2]; [5]) | thermal stability score (HeLa Kyoto [2]; cell cycle stage: mitosis) | solubility in G1/S (log2) (HeLa Kyoto [3]) | melting temperature (HeLa Kyoto [4]; cell cycle stage: G1/S) | melting temperature (HeLa Kyoto [4]; cell cycle stage: mitosis)
1 | MGARASGGPLARAGLLLLLLLLLLLGLLAPGAQGARGRGGAEKNSYRRTVNTFSQSVSSLFGEDNVRAAQKFLARLTERFVLGVDMFVETLWKVWTELLDVLGLDVSNLSQYFSPASVSSSPARALLLVGVVLLAYWFLSLTLGFTFSVLHVVFGRFFWIVRVVLFSMSCVYILHKYEGEPENAVLPLCFVVAVYFMTGPMGFYWRSSPSGPSNPSNPSVEEKLEHLEKQVRLLNIRLNRVLESLDRSKDK [BRI3BP] | 0.0237 | -0.814 | -3.07 | -0.138 | 55.1 °C | 53.1 °C
2 | MARGGRGRRLGLALGLLLALVLAPRVLRAKPTVRKERVVRPDSELGERPPEDNQSFQYDHEAFLGKEDSKTFDQLTPDESKERLGKIVDRIDNDGDGFVTTEELKTWIKRVQKRYIFDNVAKVWKDYDRDKDDKISWEEYKQATYGYYLGNPAEFHDSSDHHTFKKMLPRDERRFKAADLNGDLTATREEFTAFLHPEEFEHMKEIVVLETLEDIDKNGDGFVDQDEYIADMFSHEENGPEPDWVLSEREQFNEFRDLNKDGKLDKDEIRHWILPQDYDHAQAEARHLVYESDKNKDEKLTKEEILENWNMFVGSQATNYGEDLTKNHDEL [RCN1] | 0.0254 | 1.52 | 1.33 | 0.419 | 55 °C | 56.4 °C
3 | GAPDH | -0.0817 | -2.02 | -3.87 | 0.191 | 59.5 °C | 60.3 °C
4 | MFISLWEFFYGHFFRFWMKWLLRQMTGKCELQRIFDTYVGAQRTHRIENSLTYSKNKVLQKATHVVQSEVDKYVDDIMKEKNINPEKDASFKICMKMCLLQITGYKQLYLDVESVRKRPYDSDNLQHEELLMKLWNLLMPTKKLNARISKQWAEIGFQGDDPKTDFRGMGILGLINLVYFSENYTSEAHQILSRSNHPKLGYSYAIVGINLTEMAYSLLKSEALKFHLYNLVPGIPTMEHFHQFYCYLVYEFDKFWFEEEPESIMYFNLYREKFHEKIKGLLLDCNVALTLKV [ELMOD2] | -0.25 | -0.373 | -0.0202 | -0.348 | 51.5 °C | 51.3 °C
5 | PTBP1 | 0.0339 | 5.29 | 9.17 | 0.378 | 49.1 °C | 48.6 °C
6 | MTANRDAALSSHRHPGCAQRPRTPTFASSSQRRSAFGFDDGNFPGLGERSHAPGSRLGARRRAKTARGLRGHRQRGAGAGLSRPGSARAPSPPRPGGPENPGGVLSVELPGLLAQLARSFALLLPVYALGYLGLSFSWVLLALALLAWCRRSRGLKALRLCRALALLEDEERVVRLGVRACDLPAWVHFPDTERAEWLNKTVKHMWPFICQFIEKLFRETIEPAVRGANTHLSTFSFTKVDVGQQPLRINGVKVYTENVDKRQIILDLQISFVGNCEIDLEIKRYFCRAGVKSIQIHGTMRVILEPLIGDMPLVGALSIFFLRKPLLEINWTGLTNLLDVPGLNGLSDTIILDIISNYLVLPNRITVPLVSEVQIAQLRFPVPKGVLRIHFIEAQDLQGKDTYLKGLVKGKSDPYGIIRVGNQIFQSRVIKENLSPKWNEVYEALVYEHPGQELEIELFDEDPDKDDFLGSLMIDLIEVEKERLLDEWFTLDEVPKGKLHLRLEWLTLMPNASNLDKVLTDIKADKDQANDGLSSALLILYLDSARNLPSGKKISSNPNPVVQMSVGHKAQESKIRYKTNEPVWEENFTFFIHNPKRQDLEVEVRDEQHQCSLGNLKVPLSQLLTSEDMTVSQRFQLSNSGPNSTIKMKIALRVLHLEKRERPPDHQHSAQVKRPSVSKEGRKTSIKSHMSGSPGPGGSNTAPSTPVIGGSDKPGMEEKAQPPEAGPQGLHDLGRSSSSLLASPGHISVKEPTPSIASDISLPIATQELRQRLRQLENGTTLGQSPLGQIQLTIRHSSQRNKLIVVVHACRNLIAFSEDGSDPYVRMYLLPDKRRSGRRKTHVSKKTLNPVFDQSFDFSVSLPEVQRRTLDVAVKNSGGFLSKDKGLLGKVLVALASEELAKGWTQWYDLTEDGTRPQAMT [ESYT2] | -0.0587 | 0.682 | 0.876 | -0.095 | 51.2 °C | 51.5 °C
